Results as given in IntAct's records for PubMed 34799561.

B1: Ubiquitin-associated protein 2-like (Homo sapiens), Q14157 (parent)
chain: MMTSVGTNRARGNWEQPQNQNQTQHKQRPQATAEQIRLAQMISDHNDADFEEKVKQLIDITGKNQDECVIALHDCNGDVNRAINVLLEGNPDTHSWEMVGKKKGVSGQKDGGQTESNEEGKENRDRDRDYSRRRGGPPRRGRGASRGREFRGQENGLDGTKSGGPSGRGTERGRRGRGRGRGGSGRRGGRFSAQGMGTFNPADYAEPANTDDNYGNSSGNTWNNTGHFEPDDGTSAWRTATEEWGTEDWNEDLSETKIFTASNVSSVPLPAENVTITAGQRIDLAVLLGKTPSTMENDSSNLDPSQAPSLAQPLVFSNSKQTAISQPASGNTFSHHSMVSMLGKGFGDVGEAKGGSTTGSQFLEQFKTAQALAQLAAQHSQSGSTTTSSWDMGSTTQSPSLVQYDLKNPSDSAVHSPFTKRQAFTPSSTMMEVFLQEKSPAVATSTAAPPPPSSPLPSKSTSAPQMSPGSSDNQSSSPQPAQQKLKQQKKKASLTSKIPALAVEMPGSADISGLNLQFGALQFGSEPVLSDYESTPTTSASSSQAPSSLYTSTASESSSTISSNQSQESGYQSGPIQSTTYTSQNNAQGPLYEQRSTQTRRYPSSISSSPQKDLTQAKNGFSSVQATQLQTTQSVEGATGSAVKSDSPSTSSIPPLNETVSAASLLTTTNQHSSSLGGLSHSEEIPNTTTTQHSSTLSTQQNTLSSSTSSGRTSTSTLLHTSVESEANLHSSSSTFSTTSSTVSAPPPVVSVSSSLNSGSSLGLSLGSNSTVTASTRSSVATTSGKAPPNLPPGVPPLLPNPYIMAPGLLHAYPPQVYGYDDLQMLQTRFPLDYYSIPFPTPTTPLTGRDGSLASNPYSGDLTKFGRGDASSPAPATTLAQPQQNQTQTHHTTQQTFLNPALPPGYSYTSLPYYTGVPGLPSTFQYGPAVFPVAPTSSKQHGVNVSVNASATPFQQPSGYGSHGYNTGVSVTSSNTGVPDISGSVYSKTQQSFEKQGFHSGTPAASFNLPSALGSGGPINPATAAAYPPAPFMHILTPHQQPHSQILHHHLQQDGQTGSGQRSQTSSIPQKPQTNKSAYNSYSWGAN
B2: DNA damage-inducible transcript 3 protein (Homo sapiens), P35638 (parent)
chain: MAAESLPFSFGTLSSWELEAWYEDLQEVLSSDENGGTYVSPPGNEEEESKIFTTLDPASLAWLTEEEPEPAEVTSTSQSPHSPDSSQSSLAQEEEEEDQGRTRKRKQSGHSPARAGKQRMKEKEQENERKVAQLAEENERLKQEIERLTREVEATRRALIDRMVNLHQA

Variants of: B1
Conditions: with G3BP1, Q13283
Target sequence in this assay (Q13283 whole entry, looked up): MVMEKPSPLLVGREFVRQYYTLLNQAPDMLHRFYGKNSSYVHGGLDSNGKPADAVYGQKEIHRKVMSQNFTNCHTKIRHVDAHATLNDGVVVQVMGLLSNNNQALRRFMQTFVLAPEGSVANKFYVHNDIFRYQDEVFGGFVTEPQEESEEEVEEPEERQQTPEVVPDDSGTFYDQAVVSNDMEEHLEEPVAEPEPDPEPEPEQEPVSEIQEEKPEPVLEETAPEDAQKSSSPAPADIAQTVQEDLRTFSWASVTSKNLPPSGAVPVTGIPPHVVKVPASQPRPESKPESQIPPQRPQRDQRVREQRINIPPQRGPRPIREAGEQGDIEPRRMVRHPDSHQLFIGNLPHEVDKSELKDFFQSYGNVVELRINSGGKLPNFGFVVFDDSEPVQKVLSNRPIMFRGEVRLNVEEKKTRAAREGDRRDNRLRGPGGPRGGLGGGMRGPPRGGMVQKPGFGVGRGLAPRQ
In the case of F518A;F523A, the “effect of a mutation on the interaction” value is reported as “disrupting interaction strength”.

Variants of: B1
Conditions: with G3BP1, Q13283
Remark: another data set of the same source
Target sequence in this assay (Q13283 whole entry, looked up): as above
F518A;F523A was tested, and the “effect of a mutation on the interaction” value was “decreasing interaction strength”.

Variants of: B2
Conditions: with G3BP1, Q13283
Target sequence in this assay (Q13283 whole entry, looked up): as above
F10A;G11A was tested, and the “effect of a mutation on the interaction” value was “disrupting interaction strength”.
